{"source": "paper PMC6488122", "target": "ERα-LBD (ligand binding domain of estrogen receptor α)", "experiment": "other fluorescence titration; quenching of the endogenous fluorescence of ERα-LBD (0.2 μm, 600 μL) by microaddition of CTX solution; excitation 295 nm, slits 10 nm, 25°C", "data": [{"substance": "chlorotoxin (CTX), recombinant, cut from GST-CTX (from UniProt P45639 1-36) (peptide)", "values": [{"measurement": "Ka", "value": "3e+07", "unit": "M⁻¹"}]}]}
